# Primed or numbered codes have the meaning given here. * marks the point of attachment. Fmoc = O=C(OCC1c2ccccc2-c2ccccc21)*; Myristoyl = CCCCCCCCCCCCCC(=O)*; OMe′ = Asp methyl ester; Cbz = O=C(OCc1ccccc1)*; βAla = NCCC(=O)O
# Target: T1, Gadd45β/MKK7 interaction (Homo sapiens, UniProt O14733)
# T1 construct: The GST-fused full-length kinase was coated for 16 h at 4° C., at a concentration of 42 nM; made in house
# T1 sequence (O14733 1-419): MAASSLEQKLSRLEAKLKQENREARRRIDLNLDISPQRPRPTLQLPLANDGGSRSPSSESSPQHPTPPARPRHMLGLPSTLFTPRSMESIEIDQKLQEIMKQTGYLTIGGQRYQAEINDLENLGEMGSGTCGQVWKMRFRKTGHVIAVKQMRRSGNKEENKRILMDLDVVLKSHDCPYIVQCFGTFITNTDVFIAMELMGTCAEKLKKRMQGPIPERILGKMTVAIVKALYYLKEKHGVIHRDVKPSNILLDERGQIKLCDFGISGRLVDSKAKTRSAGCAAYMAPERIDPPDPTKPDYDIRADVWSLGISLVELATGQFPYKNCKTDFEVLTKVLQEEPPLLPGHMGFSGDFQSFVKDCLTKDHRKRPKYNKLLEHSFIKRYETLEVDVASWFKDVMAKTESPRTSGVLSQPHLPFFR
# Test: ELISA competition assay of biotin-hGadd45β binding to coated GST-MKK7
# Details: Table I, initial Elisa screening; coated MKK7 42 nM, biotin-hGadd45β 21 nM; competitor 21 nM, sub-libraries 42 nM
# Procedure: To evaluate the inhibitory properties of peptides, ELISA-based assays were performed. In these assays, a fusion protein of glutathione S-transferase (GST) and mitogen-activated protein kinase kinase 7 (MKK7) was coated onto wells of a 96-well plate, while biotinylated-hGadd45β was used in solution. hGadd45β was biotinylated using an EZ Link NHS-LC-biotin kit (Pierce, Rockford, Ill.), according to Tornatore et al. (Tornatore L., et al. (2008). J Mol Biol; 378:97-111).
# Firstly, the association between Gadd45β and MKK7 was investigated by ELISA assays as also reported in Tornatore et al. (Tornatore L., et al. (2008). J Mol Biol; 378:97-111). The GST-fused full-length kinase was coated for 16 h at 4° C., at a concentration of 42 nM in buffer A (25 mM Tris pH 7.5, 150 mM NaCl, 1 mM DTT and 1 mM EDTA) into wells of a 96-well microliter plate. Some wells were filled with buffer alone and were used as blanks. After incubation for 16 h at 4° C., the solutions were removed and the wells were filled with 350 μL of a 1% (w/v) solution of NFDM (Non Fat Dry Milk) in PBS (phosphate buffered saline). The plate was incubated for 1 h at 37° C. in the dark. After washing with buffer T-PBS (PBS with 0.004% (v/v) Tween detergent), the wells were filled with 100 μL of biotinylated-hGadd45β at concentrations ranging from 8.4 nM to 168 nM. Each data point was performed in triplicate. Following incubation for 1 hr in the dark at 37° C. the solutions were removed and the wells were again washed with T-PBS. Then 100 μL of a 1:10,000 dilution of horseradish peroxidase-conjugated streptavidin dissolved in buffer was added to each well and the plate incubated for 1 hr at 37° C. in the dark. After removal of the enzyme solution and washing, 100 μL of the chromogenic substrate o-phenylendiamine (0.4 mg/mL in 50 mM sodium phosphate-citrate buffer, containing 0.4 mg/mL of urea in hydrogen peroxide) was added and the colour was allowed to develop in the dark for 5 min. The reaction was stopped by adding 50 μL of 2.5 M H2SO4. The absorbance at 490 nm was measured in all wells and the values were averaged after subtracting the corresponding blanks. Bound protein was then detected as described above. The molar concentration of biotinylated-hGadd45β at which the half-maximal ELISA signal is detected corresponds to the dissociation constant (KD) (Friguet B, Chaffotte A F, Djavadi-Ohaniance L, Goldberg M E. J Immunol Methods. 1985 Mar. 18; 77 (2):305-19). Binding competition assays were performed by coating GST-MKK7 at 42 nM as described, a concentration of biotinylated-hGadd45β of 21 nM (pre-saturation conditions 1:0.5 mol/mol ratio) and, in a first test, using competitors at 21 nM. The binding of biotinylated hGadd45β to GST-MKK7 was analyzed in the presence of increasing amounts of competitor peptide (concentrations ranging from 0.01 nM to 100 nM), and the values obtained with the competitor were expressed as the percentage of the binding detected in the absence of competitor. […] According to the convention adopted in the table “L-Xaa” and “D-Xaa” refer to the L and D forms of amino acid Xaa.
# A simplified combinatorial peptide library (Marasco et al. 2008, Curr. Protein Pept. Sci. 9:447-67) was screened for antagonists of the Gadd45β/MKK7 interaction. This library contained a total of 12^4=20,736 different tetrapeptides formed by combinations of the following amino acid residues Gln (Q), Ser (S), Arg (R), Ala (A), Tyr (Y), Pro (P), Met (M), Cys (C), Phe (F), Leu (L), His (H), Asp (D), and was iteratively deconvoluted in four steps by ELISA competition assays using at each step coated MKK7 (42 nM), soluble-biotin-hGadd45β (21 nM) and each of the 12 sub-libraries (42 nM).
row,Substance,% Inhibition of Gadd45β-MKK7 binding
1,Fmoc(βAla)2-YDHD-NH2 ({Fmoc-βAla-βAla}-YDHD-NH2; SMILES NC(=O)[C@H](CC(=O)O)NC(=O)[C@H](Cc1c[nH]cn1)NC(=O)[C@H](CC(=O)O)NC(=O)[C@H](Cc1ccc(O)cc1)NC(=O)CCNC(=O)CCNC(=O)OCC1c2ccccc2-c2ccccc21),0%
2,Fmoc(βAla)2-YDHF-NH2 ({Fmoc-βAla-βAla}-YDHF-NH2),99%
3,Fmoc(βAla)2-YDHH-NH2 ({Fmoc-βAla-βAla}-YDHH-NH2; SMILES NC(=O)[C@H](Cc1c[nH]cn1)NC(=O)[C@H](Cc1c[nH]cn1)NC(=O)[C@H](CC(=O)O)NC(=O)[C@H](Cc1ccc(O)cc1)NC(=O)CCNC(=O)CCNC(=O)OCC1c2ccccc2-c2ccccc21),40%
4,Fmoc(βAla)2-YDHL-NH2 ({Fmoc-βAla-βAla}-YDHL-NH2; SMILES CC(C)C[C@H](NC(=O)[C@H](Cc1c[nH]cn1)NC(=O)[C@H](CC(=O)O)NC(=O)[C@H](Cc1ccc(O)cc1)NC(=O)CCNC(=O)CCNC(=O)OCC1c2ccccc2-c2ccccc21)C(N)=O),33%
5,Fmoc(βAla)2-YDHM-NH2 ({Fmoc-βAla-βAla}-YDHM-NH2; SMILES CSCC[C@H](NC(=O)[C@H](Cc1c[nH]cn1)NC(=O)[C@H](CC(=O)O)NC(=O)[C@H](Cc1ccc(O)cc1)NC(=O)CCNC(=O)CCNC(=O)OCC1c2ccccc2-c2ccccc21)C(N)=O),14%
6,Fmoc(βAla)2-YDHP-NH2 ({Fmoc-βAla-βAla}-YDHP-NH2; SMILES NC(=O)[C@@H]1CCCN1C(=O)[C@H](Cc1c[nH]cn1)NC(=O)[C@H](CC(=O)O)NC(=O)[C@H](Cc1ccc(O)cc1)NC(=O)CCNC(=O)CCNC(=O)OCC1c2ccccc2-c2ccccc21),16%
7,Fmoc(βAla)2-YDHR-NH2 ({Fmoc-βAla-βAla}-YDHR-NH2; SMILES N=C(N)NCCC[C@H](NC(=O)[C@H](Cc1c[nH]cn1)NC(=O)[C@H](CC(=O)O)NC(=O)[C@H](Cc1ccc(O)cc1)NC(=O)CCNC(=O)CCNC(=O)OCC1c2ccccc2-c2ccccc21)C(N)=O),2%
8,Fmoc(βAla)2-YDHS-NH2 ({Fmoc-βAla-βAla}-YDHS-NH2; SMILES NC(=O)[C@H](CO)NC(=O)[C@H](Cc1c[nH]cn1)NC(=O)[C@H](CC(=O)O)NC(=O)[C@H](Cc1ccc(O)cc1)NC(=O)CCNC(=O)CCNC(=O)OCC1c2ccccc2-c2ccccc21),0%
9,Fmoc(βAla)2-YDHY-NH2 ({Fmoc-βAla-βAla}-YDHY-NH2; SMILES NC(=O)[C@H](Cc1ccc(O)cc1)NC(=O)[C@H](Cc1c[nH]cn1)NC(=O)[C@H](CC(=O)O)NC(=O)[C@H](Cc1ccc(O)cc1)NC(=O)CCNC(=O)CCNC(=O)OCC1c2ccccc2-c2ccccc21),63%

# Same assay, conditions: Table III, modified peptides
row,% Inhibition of Gadd45β-MKK7 binding,Substance
1,58%,Fmoc-YDHF-NH2
2,60%,Fmoc-YERF-NH2
3,26%,Myr-YDHF-NH2 (Myristoyl-YDHF-NH2)
4,28%,Myr-YDHQ-NH2 (Myristoyl-YDHQ-NH2)
5,37%,Myr-YERF-NH2 (Myristoyl-YERF-NH2)
6,84%,Z-YD(OMe)HF-NH2 (Cbz-YD(OMe′)HF-NH2)
7,3%,Z-YD(OMe)HQ-NH2 (Cbz-YD(OMe′)HQ-NH2)
8,13%,Z-YDHQ-NH2 (Cbz-YDHQ-NH2)

row,Substance,% Inhibition of Gadd45β-MKK7 binding
1,Fmoc-YDFQ-NH2 (SMILES NC(=O)CC[C@H](NC(=O)[C@H](Cc1ccccc1)NC(=O)[C@H](CC(=O)O)NC(=O)[C@H](Cc1ccc(O)cc1)NC(=O)OCC1c2ccccc2-c2ccccc21)C(N)=O),19%

# From patent US8993717B2, “Gadd45beta targeting agents” (Imperial Innovations Limited, priority 2009, dated 2015)
